Substrate: [H][C@]12[C@H](OC(=O)c3ccccc3)[C@]3(O)C[C@H](OC(=O)[C@H](O)[C@@H](NC(=O)c4ccccc4)c4ccccc4)C(C)=C([C@@H](O)C(=O)[C@]1(C)[C@@H](O)C[C@@]1([H])OC[C@@]21OC(C)=O)C3(C)C
Experiment: purified protein
Details: acetyl-CoA 2,000 μM (saturating), 50 mM sodium acetate pH 5.5, 37.5 °C, 180 min

Row | Protein | Km | Vmax [µM/min] | kcat [s⁻¹] | kcat/Km [M⁻¹ s⁻¹]
1 | DBAT (recombinant DBAT of T. cuspidata) (Taxus cuspidata) (protein) MAGSTEFVVRSLERVMVAPSQPSPKAFLQLSTLDNLPGVRENIFNTLLVYNASDRVSVDPAKVIRQALSKVLVYYSPFAGRLRKKENGDLEVECTGEGALFVEAMADTDLSVLGDLDDYSPSLEQLLFCLPPDTDIEDIHPLVVQVTRFTCGGFVVGVSFCHGICDGLGAGQFLIAMGEMARGEIKPSSEPIWKRELLKPEDPLYRFQYYHFQLICPPSTFGKIVQGSLVITSETINCIKQCLREESKEFCSAFEVVSALAWIARTRALQIPHSENVKLIFAMDMRKLFNPPLSKGYYGNFVGTVCAMDNVKDLLSGSLLRVVRIIKKAKVSLNEHFTSTIVTPRSGSDESINYENIVGFGDRRRLGFDEVDFGWGHADNVSLVQHGLKDVSVVQSYFLFIRPPKNNPDGIKILSFMPPSIVKSFKFEMETMTNKYVTKP | 0.546 (±0.029) mM | 0.204 | 0.000334 | 0.611
2 | DBAT (recombinant DBAT of T. cuspidata) (Taxus cuspidata; G38R) (protein) MAGSTEFVVRSLERVMVAPSQPSPKAFLQLSTLDNLPRVRENIFNTLLVYNASDRVSVDPAKVIRQALSKVLVYYSPFAGRLRKKENGDLEVECTGEGALFVEAMADTDLSVLGDLDDYSPSLEQLLFCLPPDTDIEDIHPLVVQVTRFTCGGFVVGVSFCHGICDGLGAGQFLIAMGEMARGEIKPSSEPIWKRELLKPEDPLYRFQYYHFQLICPPSTFGKIVQGSLVITSETINCIKQCLREESKEFCSAFEVVSALAWIARTRALQIPHSENVKLIFAMDMRKLFNPPLSKGYYGNFVGTVCAMDNVKDLLSGSLLRVVRIIKKAKVSLNEHFTSTIVTPRSGSDESINYENIVGFGDRRRLGFDEVDFGWGHADNVSLVQHGLKDVSVVQSYFLFIRPPKNNPDGIKILSFMPPSIVKSFKFEMETMTNKYVTKP | 0.368 (±0.061) mM | 0.499 | 0.000815 | 2.22
3 | DBAT (recombinant DBAT of T. cuspidata) (Taxus cuspidata; F301V) (protein) MAGSTEFVVRSLERVMVAPSQPSPKAFLQLSTLDNLPGVRENIFNTLLVYNASDRVSVDPAKVIRQALSKVLVYYSPFAGRLRKKENGDLEVECTGEGALFVEAMADTDLSVLGDLDDYSPSLEQLLFCLPPDTDIEDIHPLVVQVTRFTCGGFVVGVSFCHGICDGLGAGQFLIAMGEMARGEIKPSSEPIWKRELLKPEDPLYRFQYYHFQLICPPSTFGKIVQGSLVITSETINCIKQCLREESKEFCSAFEVVSALAWIARTRALQIPHSENVKLIFAMDMRKLFNPPLSKGYYGNVVGTVCAMDNVKDLLSGSLLRVVRIIKKAKVSLNEHFTSTIVTPRSGSDESINYENIVGFGDRRRLGFDEVDFGWGHADNVSLVQHGLKDVSVVQSYFLFIRPPKNNPDGIKILSFMPPSIVKSFKFEMETMTNKYVTKP | 0.178 (±0.017) mM | 0.242 | 0.000396 | 2.22
4 | DBAT (recombinant DBAT of T. cuspidata) (Taxus cuspidata; F301V/G38R) (protein) MAGSTEFVVRSLERVMVAPSQPSPKAFLQLSTLDNLPRVRENIFNTLLVYNASDRVSVDPAKVIRQALSKVLVYYSPFAGRLRKKENGDLEVECTGEGALFVEAMADTDLSVLGDLDDYSPSLEQLLFCLPPDTDIEDIHPLVVQVTRFTCGGFVVGVSFCHGICDGLGAGQFLIAMGEMARGEIKPSSEPIWKRELLKPEDPLYRFQYYHFQLICPPSTFGKIVQGSLVITSETINCIKQCLREESKEFCSAFEVVSALAWIARTRALQIPHSENVKLIFAMDMRKLFNPPLSKGYYGNVVGTVCAMDNVKDLLSGSLLRVVRIIKKAKVSLNEHFTSTIVTPRSGSDESINYENIVGFGDRRRLGFDEVDFGWGHADNVSLVQHGLKDVSVVQSYFLFIRPPKNNPDGIKILSFMPPSIVKSFKFEMETMTNKYVTKP | 0.424 (±0.133) mM | 0.918 | 0.0015 | 3.54
